T1: human Notch1 NRR-Fc (Homo sapiens, UniProt P46531)
T1 construct: Expression constructs encoding human Notch1 and Notch2 NRR regions, fused with human IgG1 Fc fragments; made in house; host or cells: CHO-PACE cells
T1 sequence (P46531 1446-1733 limits assumed): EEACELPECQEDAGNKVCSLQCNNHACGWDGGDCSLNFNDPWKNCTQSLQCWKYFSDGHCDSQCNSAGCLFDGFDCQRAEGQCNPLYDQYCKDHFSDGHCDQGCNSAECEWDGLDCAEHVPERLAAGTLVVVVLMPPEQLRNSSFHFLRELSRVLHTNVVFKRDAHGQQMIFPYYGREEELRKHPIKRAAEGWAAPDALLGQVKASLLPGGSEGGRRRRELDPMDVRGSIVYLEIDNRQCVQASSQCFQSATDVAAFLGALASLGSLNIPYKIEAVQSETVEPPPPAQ

T2: human Notch2 NRR-Fc (Homo sapiens, UniProt Q04721)
T2 construct: Expression constructs encoding human Notch1 and Notch2 NRR regions, fused with human IgG1 Fc fragments; made in house; host or cells: CHO-PACE cells
T2 sequence (Q04721 1425-1677 limits assumed): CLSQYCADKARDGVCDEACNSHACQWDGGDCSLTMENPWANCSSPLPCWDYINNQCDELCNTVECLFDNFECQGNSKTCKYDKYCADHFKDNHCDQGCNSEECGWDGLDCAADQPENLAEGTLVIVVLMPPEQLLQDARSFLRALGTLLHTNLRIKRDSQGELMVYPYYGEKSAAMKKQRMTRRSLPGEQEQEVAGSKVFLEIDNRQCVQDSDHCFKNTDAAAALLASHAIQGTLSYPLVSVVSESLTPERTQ

T3: human Notch3 NRR recombinant protein (Homo sapiens, UniProt Q9UM47)
T3 construct: made in house
T3 sequence (Q9UM47 with tags, fused parts or gaps): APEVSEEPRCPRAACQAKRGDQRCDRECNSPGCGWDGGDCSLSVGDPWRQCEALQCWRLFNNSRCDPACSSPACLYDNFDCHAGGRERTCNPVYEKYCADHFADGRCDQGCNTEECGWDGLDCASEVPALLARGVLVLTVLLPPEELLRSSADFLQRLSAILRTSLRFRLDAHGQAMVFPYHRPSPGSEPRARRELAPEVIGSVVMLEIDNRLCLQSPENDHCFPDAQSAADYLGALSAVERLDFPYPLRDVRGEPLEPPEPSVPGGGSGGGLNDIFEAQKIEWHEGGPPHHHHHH


How the values were obtained:
human Notch1 NRR-Fc = target: T1, human Notch1 NRR-Fc; test: Binding to Notch1 NRR-Fc; conditions: N/B = non-binding
Source text: (§1) Other members of the Notch receptor family play important roles in biological processes. For example, a Notch1 or Notch2 deficiency leads to embryonic death in mouse models. In contrast, a Notch4 deficiency results in no detectable phenotype in mouse models. The closest homologues of the Notch3 NRR region are Notch1 and Notch2 (˜50% homology), and Notch4 is a more distant homologue (˜30% homology). Cross-reactivity of anti-Notch3 antibodies to other members of the Notch family, especially Notch1 and 2, may lead to undesired effects in patients. Therefore, the potential cross-reactivity of r28 and hu28, along with r75 and hu75 to other Notch family members were assessed.
(§2) Expression constructs encoding human Notch1 and Notch2 NRR regions, fused with human IgG1 Fc fragments were stably introduced into CHO-PACE cells. Conditioned media from these cells expressing NRR-Fc fusions were collected. Human Notch2 NRR-Fc and human Notch1 NRR-Fc were purified by protein A affinity followed by size exclusion chromatography (SEC). Purified preparations were dialysed into TBS with 1 mM CaCl2 and analyzed on analytical SEC to be >99% in purity.

human Notch2 NRR-Fc = target: T2, human Notch2 NRR-Fc; test: Binding to Notch2 NRR-Fc; conditions: N/B = non-binding
Source text: as §1, §2

[1] = Thermal stability by differential scanning calorimetry (DSC); type: physicochemical; conditions: 0.3 mg/ml in PBS
Procedure: There is a positive correlation between the thermal stability of a protein or protein domain with the overall stability of the protein or protein domain. A higher melting point of a protein or protein domain often provides improved manufacturability and longer shelf life. Differential scanning calorimetry (DSC) was used to assess the thermal stability of hu28 and hu75 versus ch28 and ch75, respectively. Protein samples were diluted in PBS to 0.3 mg/ml in a volume of 250 μl. The corresponding formulation buffer blank was used for the reference sample. Both samples were thoroughly degassed using a MicroCal ThermoVac Sample Degassing and Thermostat (Microcal, Inc., Northampton, Mass.) set to 8° C. Samples were dispensed into the appropriate cells of a MicroCal VP-DSC Capillary Cell MicroCalorimter (MicroCal, Inc., Northampton, Mass.). Samples were equilibrated for 4 minutes at 15° C. and then scanned up to 100° C. at a rate of 100° C. per hour. A filtering period of 20 seconds was selected. Raw data was baseline corrected and the protein concentration was normalized. Origin Software (OriginLab Corporation, Northampton, Mass.) was used to fit the data to an MN2-State Model with an appropriate number of transitions.

[2] = target: T3, human Notch3 NRR recombinant protein; test: Surface plasmon resonance (Biacore) kinetic analysis; type: binding; conditions: antibody captured; 1:1 Langmuir model
Procedure: The kinetic constants of the anti-Notch3 NRR interactions were determined by surface plasmon resonance (Biacore® T100, Biacore Inc., Piscataway, N.J.). Flow cells of a CM5 chip were immobilized with approximately 10,000 response units (RU) of anti-human IgG-Fc (Biacore®) in 10 mM Glycine, pH 5.0 at 10 μl/min for 600 seconds. 10 μg/ml of anti-Notch3 antibodies ch28 and hu28, and ch75 and hu75 were diluted in TBS with 1 mM CaCl2 were captured at 10 μl/min. Association of four concentrations of human Notch3 NRR recombinant protein (from 3.7-100 nM) and a zero concentration (running buffer) at 100 μl/min were recorded for 3 minutes in TBS with 1 mM CaCl2. Dissociation of the complexes was measured for 10 minutes. The surface of the chip was regenerated by injecting 3M MgCl2 with 3 mM EGTA for 60 seconds at 10 μl/min. Curves obtained after subtraction of the reference and buffer signals were fitted to a 1:1 Langmuir binding model with Biacore® T100 Evaluation Software (Biacore®).

Binding to Notch1 NRR-Fc (human Notch1 NRR-Fc)	Binding to Notch2 NRR-Fc (human Notch2 NRR-Fc)	ka [2]	kd [2]	Molecule	Tm ± Standard Deviation, CH2 [1]	Tm ± Standard Deviation, CH3 [1]	Tm ± Standard Deviation, Fab [1]
N/B	N/B	57000 M⁻¹ s⁻¹	0.000992 s⁻¹	ch75: rat-human chimeric anti-Notch3 antibody 75, rat variable regions fused with human IgG1 and human kappa (antibody, V domains shown) VH: QVKLLQSGAALVKPGASVKMSCKASGYAFTDYWVTWVKQSHGKSLEWIGEISPNSGGTNFNEKFKGKATLTVDKSTSTAYMELSRLTSEDSAIYYCTRGEIRYNWFAYWGQGTLVTVSS VL: NIVMTQSPKSMSISVGDRVTMNCKASQNVGNNIAWYQQKPGQSPKLLIYYASNRYTGVPDRFTGGGYGTDFTLTINSMQAEDAAFYYCQRLYNSPFTFGSGTKLEIK	73.32 ± 0.01 °C	84.59 ± 0.03 °C	73.32 ± 0.01 °C
N/B	N/B	386000 M⁻¹ s⁻¹	0.000347 s⁻¹	hu28 VH1.0/VL1.0: humanized r28 variant VH1.0/VL1.0, anti-Notch3 antibody (VH SEQ ID NO: 13, VL SEQ ID NO: 25) (antibody, V domains shown) VH: EVQLVESGGGLVQPGGSLRLSCAASGFTFRDYGMTWVRQAPGKGLEWVAYISSGSNYIYYAEAVKGRFTISRDNAKNSLYLQMNSLRAEDTAVYYCARRGPFVLDAWGQGTLVTVSS VL: DIQMTQSPSSLSASVGDRVTITCKASQSINRYLHWYQQKPGKAPKLLIYNANGLQTGVPSRFSGSGSGTDFTLTISSLQPEDFATYYCLQHNTWPDTFGGGTKVEIK	72.63 ± 0.03 °C	83.45 ± 0.17 °C	83.45 ± 0.17 °C

— patent publication US9433687B2, “Anti-Notch3 antibodies and antibody-drug conjugates” (Pfizer Inc., priority 2012, dated 2016)
